Measured values: patent US20180022797A1 (published 2018)
Ends that are not written are not given here.

Molecular target: T1, peptide 13 (TSESGELHGLTTE) (human, also: biotinylated, site not given here)
T1 construct: on the D-strand
T1 peptide: TSESGELHGLTTE
Assay: ELISA: antibody titrated on NeutrAvidin-captured biotinylated peptide, non-linear regression
Method: ELISA assay was then utilized to identify the corresponding epitope(s) for each antibody. 5 μg/mL of NeutrAvidin (Pierce, USA) in 50 mM pH 9.6 sodium carbonate/bicarbonate buffer was used to coat 96-well Corning high-binding EIA/RIA plates. The plates were washed three times with TBST buffer and blocked with Superblock (Pierce, USA). Fifty to one hundred microliters of the biotinylated peptides were diluted with PBS to […] and added to each well and incubated at room temperature for one hour. […] After one hour room temperature incubation and washing steps, HRP-conjugated secondary antibody was applied. Goat-anti-mouse IgG or Fc HRP conjugates were used in the case of mouse monoclonal antibodies while goat-anti-rabbit IgG HRP conjugate antibody was used for rabbit polyclonal detection. TMB was used as the HRP substrate for the detections.

B1: MFD108 (antibody, V domains shown)
VH: EVQLVESGGDLVKPGGSLKLSCAASGFTFSNYGMSWVRQTPDKRLEWVATITSGGSYTYYPDSVKGRFTISRDNAKNTLYLQMSSLKSEDTAMYYCARDGTAWFAYWGQGTLVTVSA
VL: DIQMTQTTSSLSASLGDRVTISCRASQDISNYLNWYQQKPDGTVKLLIYYTSRLHSGVPSRFSGSGSGTDYSLTISNLEEEDIATYFCQQGNTLRTFGGGTKLEIK
notes: Mouse monoclonal IgG1, kappa light chain; also called mouse monoclonal antibody MFD108; hybridoma ATCC PTA-120816
Kd: 0.25 nM
